Data set [1] has as its target Control peptide #113: [4-Mu]…[DABCYL]-Hex.
In data set [2] the target is Control peptide #112: [5-Fam]…[DABCYL]-Hex.

Here are results for 2 proteins from patent US20210255174.

B1: Proteinase K (protein)
chain: AAQTNAPWGLARISSTSPGTSTYYYDESAGQGSCVYVIDTGIEASHPEFEGRAQMVKTYYYSSRDGNGHGTHCAGTVGSRTYGVAKKTQLFGVKVLDDNGSGQYSTIIAGMDFVASDKNNRNCPKGVVASLSLGGGYSSSVNSAAARLQSSGVMVAVAAGNNNADARNYSPASEPSVCTVGASDRYDRRSSFSNYGSVLDIFGPGTSILSTWIGGSTRSISGTSMATPHVAGLAAYLMTLGKTTAASACRYIADTANKGDLSNIPFGTVNLLAYNNYQA
Broadly, the KM is the substrate concentration at which the rate is half of its maximum. Take B1: the Michaelis constant (KM) in data set [1] turned out to be 4.87 µM; in data set [2], 3.37 µM.

B2: Thermolysin (protein)
chain: ITGTSTVGVGRGVLGDQKNINTTYSTYYYLQDNTRGNGIFTYDAKYRTTLPGSLWADADNQFFASYDAPAVDAHYYAGVTYDYYKNVHNRLSYDGNNAAIRSSVHYSQGYNNAFWNGSQMVYGDGDGQTFIPLSGGIDVVAHELTHAVTDYTAGLIYQNESGAINEAISDIFGTLVEFYANKNPDWEIGEDVYTPGISGDSLRSMSDPAKYGDPDHYSKRYTGTQDNGGVHINSGIINKAAYLISQGGTHYGVSVVGIGRDKLGKIFYRALTQYLTPTSNFSQLRAAAVQSATDLYGSTSQEVASVKQAFDAVGVK
On to B2, for which the KM in data set [1] is 6.45 µM; in data set [2], 3.58 µM.
